Legend:
[1] = target: T1, neuropilin 1 (NRP1) on human umbilical vein endothelial cells (HUVEC) (human, UniProt O14786 22-923); assay: flow cytometry, Sema3A/Fc (2 µg/ml) on HUVEC, anti-human IgG Fc detection
T1 construct: whole, on cells; also called cell-surface NRP1
Procedure: (§1) The results shown in FIGS. 8-12 indicate that oligo(G) can promote the internalization of NRP1 by bridging NRP1 to the scavenger SREC-I receptor on endothelial cells. This should disrupt the binding of the NRP1 ligands Sema3A and VEGF165 to endothelial cells due to receptor internalization. To verify this hypothesis, HUVEC were incubated at 37° C. for 1 hour with or without phosphorothioate G18 (sG18) (4 or 16 μg/ml). Subsequently, the cells were washed and binding of Sema3A/Fc and biotin-labeled VEGF165 tested after incubation at 4° C. for 1 hour. Bound Sema3A/Fc was detected by flow cytometry after staining with FITC-conjugated goat anti-human IgG-Fc; bound VEGF165 was detected by flow cytometry after staining with avidin-FITC.

[2] = target: T1, neuropilin 1 (NRP1) on human umbilical …; assay: flow cytometry, biotinylated VEGF165 (100 ng/ml) on HUVEC, avidin-FITC detection
Procedure: as §1

T1 sequence (O14786 22-923): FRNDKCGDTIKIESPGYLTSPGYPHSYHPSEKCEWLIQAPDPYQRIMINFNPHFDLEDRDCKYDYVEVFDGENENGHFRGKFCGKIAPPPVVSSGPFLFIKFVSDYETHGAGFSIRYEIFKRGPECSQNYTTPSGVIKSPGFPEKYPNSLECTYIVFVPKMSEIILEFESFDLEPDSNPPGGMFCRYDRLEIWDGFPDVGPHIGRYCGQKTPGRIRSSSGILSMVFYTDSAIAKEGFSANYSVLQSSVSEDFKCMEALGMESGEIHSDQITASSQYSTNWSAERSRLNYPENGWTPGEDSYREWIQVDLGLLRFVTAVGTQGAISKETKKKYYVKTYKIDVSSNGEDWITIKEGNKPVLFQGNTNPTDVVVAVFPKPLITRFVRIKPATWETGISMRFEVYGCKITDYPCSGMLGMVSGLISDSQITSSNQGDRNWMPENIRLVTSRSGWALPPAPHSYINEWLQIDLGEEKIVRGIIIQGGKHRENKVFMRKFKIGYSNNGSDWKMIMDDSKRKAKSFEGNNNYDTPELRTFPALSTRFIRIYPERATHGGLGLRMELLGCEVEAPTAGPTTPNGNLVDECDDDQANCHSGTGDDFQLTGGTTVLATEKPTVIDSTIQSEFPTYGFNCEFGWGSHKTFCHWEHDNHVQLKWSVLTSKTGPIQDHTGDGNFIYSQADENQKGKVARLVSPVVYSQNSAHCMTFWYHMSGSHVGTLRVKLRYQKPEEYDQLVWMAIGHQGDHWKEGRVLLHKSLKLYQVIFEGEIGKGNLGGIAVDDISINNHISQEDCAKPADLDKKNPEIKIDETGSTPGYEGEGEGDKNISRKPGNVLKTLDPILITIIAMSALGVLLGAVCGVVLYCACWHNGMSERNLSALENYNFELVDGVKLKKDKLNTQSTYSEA

| Binder | binding result [1] | binding result [2] |
| --- | --- | --- |
| human Sema3A/Fc (Fc fusion, UniProt Q14563 26-771, looked up, Commercial reagent (R&D Systems); not shown: Fc portion) KNNVPRLKLSYKEMLESNNVITFNGLANSSSYHTFLLDEERSRLYVGAKDHIFSFDLVNIKDFQKIVWPVSYTRRDECKWAGKDILKECANFIKVLKAYNQTHLYACGTGAFHPICTYIEIGHHPEDNIFKLENSHFENGRGKSPYDPKLLTASLLIDGELYSGTAADFMGRDFAIFRTLGHHHPIRTEQHDSRWLNDPKFISAHLISESDNPEDDKVYFFFRENAIDGEHSGKATHARIGQICKNDFGGHRSLVNKWTTFLKARLICSVPGPNGIDTHFDELQDVFLMNFKDPKNPVVYGVFTTSSNIFKGSAVCMYSMSDVRRVFLGPYAHRDGPNYQWVPYQGRVPYPRPGTCPSKTFGGFDSTKDLPDDVITFARSHPAMYNPVFPMNNRPIVIKTDVNYQFTQIVVDRVDAEDGQYDVMFIGTDVGTVLKVVSIPKETWYDLEEVLLEEMTVFREPTAISAMELSTKQQQLYIGSTAGVAQLPLHRCDIYGKACAECCLARDPYCAWDGSACSRYFPTAKRRTRRQDIRNGDPLTHCSDLHHDNHHGHSPEERIIYGVENSSTFLECSPKSQRALVYWQFQRRNEERKEEIRVDDHIIRTDQGLLLRSLQQKDSGNYLCHAVEHGFIQTLLKVTLEVIDTEHLEELLHKDDDGDGSKTKEMSNSMTPSQKVWYRDFMQLINHPNLNTMDEFCEQVWKRDRKQRRQRPGHTPGNSNKWKHLQENKKGRNRRTHEFERAPRSV | binds |  |
| Recombinant human VEGF165 (biotinylated) (ligand, UniProt P15692-4 27-191, looked up, biotinylated (sites not given), Commercial reagent (R&D Systems); also called biotin-VEGF165; biotin-labeled VEGF165) APMAEGGGQNHHEVVKFMDVYQRSYCHPIETLVDIFQEYPDEIEYIFKPSCVPLMRCGGCCNDEGLECVPTEESNITMQIMRIKPHQGQHIGEMSFLQHNKCECRPKKDRARQENPCGPCSERRKHLFVQDPQTCKCSCKNTDSRCKARQLELNERTCRCDKPRR |  | binds |

Source: US20100297124A1 (published 2010)
